These results are taken from article doi:10.1101/743492.

The assay deals with mCherry-labeled WASp (Drosophila melanogaster). Nature of the assay: FRET or BRET. In general terms: Bioluminescence resonance energy transfer reports proximity on the nanometre scale.

“eGFP-labeled Cdc42 (from UniProt P40793 1-191) (natural protein)” gave an FRET probability of 0.24.
